The data set deals with T1, Nc1ncnc2c1ncn2[C@@H]1O[C@H](COP(=O)(O)OP(=O)(O)OP(=O)(O)O)[C@@H](O)[C@H]1O.
T1 construct: full-length DGKα (aa 1–735), N-terminal His×6 tag, Sf9-expressed
In words: Michaelis–Menten kinetics, mixed micelle ADP-Glo assay (Km). It is filed as biochemical, Homo sapiens. Particulars: Mg2+, Ca2+ substrate (ATP and DG) binding sites locate in the CD. On the technique in general: In ADP-Glo the light output rises with the ADP produced.

Broadly, the Km is the substrate concentration at which the rate is half of its maximum.

Sequence of diacylglycerol kinase α (DGKα) (Homo sapiens) (chain, as listed by the source): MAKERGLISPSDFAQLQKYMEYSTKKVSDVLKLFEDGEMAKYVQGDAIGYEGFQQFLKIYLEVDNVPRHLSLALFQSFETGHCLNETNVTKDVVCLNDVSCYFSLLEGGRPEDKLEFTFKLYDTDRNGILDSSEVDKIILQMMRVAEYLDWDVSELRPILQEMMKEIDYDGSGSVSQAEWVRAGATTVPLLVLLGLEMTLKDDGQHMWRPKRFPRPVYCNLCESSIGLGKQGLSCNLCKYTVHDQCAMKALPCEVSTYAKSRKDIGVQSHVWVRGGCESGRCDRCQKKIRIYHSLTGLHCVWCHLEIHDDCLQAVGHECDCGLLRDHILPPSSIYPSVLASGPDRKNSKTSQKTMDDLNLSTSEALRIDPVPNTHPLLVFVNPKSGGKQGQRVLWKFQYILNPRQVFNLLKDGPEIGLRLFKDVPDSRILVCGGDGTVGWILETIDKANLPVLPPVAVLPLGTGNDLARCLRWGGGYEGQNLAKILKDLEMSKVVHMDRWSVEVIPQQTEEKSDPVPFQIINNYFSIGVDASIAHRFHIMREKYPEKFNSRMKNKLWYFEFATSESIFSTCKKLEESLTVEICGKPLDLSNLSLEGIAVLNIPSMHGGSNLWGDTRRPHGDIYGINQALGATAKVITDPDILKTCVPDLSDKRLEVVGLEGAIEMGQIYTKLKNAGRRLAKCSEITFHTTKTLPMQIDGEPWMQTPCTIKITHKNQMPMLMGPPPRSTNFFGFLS

For the substance “diacylglycerol kinase α (DGKα) (Homo sapiens)”, the Michaelis constant (Km) came to 240 ± 30 µM and the Vmax was 2.66 ± 0.15 nmol/min/µg.

These data come from paper PMC6089211, “Expression and purification of human diacylglycerol kinase α from baculovirus-infected insect cells for structural studies” (PeerJ, 2018).
